This note sets out measurements from doi:10.1101/2024.04.24.590896 (bioRxiv, 2024).

B1: U_SNAP (Sec20, aa 133-198; Use1, aa 174-239) (other)
chain: QTSSSITESLMGISRMMSQQVQQSEEAMQTLVSSSRTLLDANEEFKSMSGTIQLGRKLITKYNRREGLSVSPSNKLKSSDAYKKAWGNNQDGVVASQPARVVDEREQMAISGGFIRRVTNDQRHQGLQEKLAEEMLGLARSLKTNTLAAQSVIKKDNQTLSHSLKMADQNLEKLKLESERLEQHAQK
B2: Sec20 SNARE domain (aa 133-198) (domain or fragment)
chain: QTSSSITESLMGISRMMSQQVQQSEEAMQTLVSSSRTLLDANEEFKSMSGTIQLGRKLITKYNRRE
B3: Use1 SNARE domain (aa 174-239) (domain or fragment)
chain: QRHQGLQEKLAEEMLGLARSLKTNTLAAQSVIKKDNQTLSHSLKMADQNLEKLKLESERLEQHAQK
B4: syntaxin 18 SNARE domain (aa 229-312) (domain or fragment)
chain: EEIQMFEQENQRLIGEMNSLFDEVRQIEGKVVEISRLQEIFTEKVLQQETEIDSIHQLVVGATENIKEGNEDIREAIKNNAGFR

The target in assay [1] is B4. Nature of the assay: native gel or EMSA + SEC. (Mobility shift assays separate free from complexed probe on a gel.)
Assay [2] addresses B4. Nature of the assay: SEC.
The target in assay [3] is B2. Nature of the assay: SEC. (SEC sorts molecules by how far they enter the pores of the column.)
Assay [4] concerns the target synaptobrevin 2 (aa 1-96) (Rattus norvegicus, UniProt P63045 1-96). Nature of the assay: native gel or EMSA.

Chain of synaptobrevin 2 (aa 1-96) (P63045 1-96): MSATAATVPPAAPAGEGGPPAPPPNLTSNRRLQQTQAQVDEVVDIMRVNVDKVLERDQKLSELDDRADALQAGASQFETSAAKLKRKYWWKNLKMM

Take B1: the binding result in assay [1] is given as “binds”.

For the molecule B2, in assay [2], the binding result was “binds”.

Regarding B3, the binding result in assay [2] and in assay [3] was “binds” throughout.

In the case of B4, the binding result in assay [4] was “binds”.
